# Measurements from US5879896A, “Method of screening for inhibitors of human thyrotropin releasing hormone (TRH) receptor” (Takeda Chemical Industries, Ltd., priority 1993, dated 1999).
# Where two headings read alike, the source gives them in different places. Square brackets hold non-standard residues; d marks the D form. Ends that are not written are not given here. Peptide text beside a SMILES is read from it. Blc = γ-butyrolactone-γ-carbonyl group; pGlu = O=C1CC[C@@H](C(=O)O)N1; ΔPro = O=C(O)[C@@H]1C=CCN1; Nva = CCC[C@H](N)C(=O)O; His(3-Me) = 3-Me-His
# Experiments:
# human TRH receptor = molecular target: T1, human TRH receptor (Homo sapiens, UniProt P34981); test: Antagonism of [3H]TRH binding in CHO dhfr- cells transformed with human TRH receptor DNA (Examples 5 and 6); set-up: translation frame (open reading frame) of the human TRH receptor was constructed on pUC118; expressed in transfected cells; host or cells: CHO dhfr- cells (plasmid pAKKO1.11 with the human TRH receptor open reading frame); details: for inhibition at 10 µM / inhibition at 100 µM / inhibition at 1000 µM: 1 h; for Antagonistic binding activity to the human TRH receptor, in words: benzodiazepine compounds, 10 μM to 1 mM; for Antagonistic Rate (%) at Each Concentration (-log M): 60 min
# T1 sequence (P34981 1-398): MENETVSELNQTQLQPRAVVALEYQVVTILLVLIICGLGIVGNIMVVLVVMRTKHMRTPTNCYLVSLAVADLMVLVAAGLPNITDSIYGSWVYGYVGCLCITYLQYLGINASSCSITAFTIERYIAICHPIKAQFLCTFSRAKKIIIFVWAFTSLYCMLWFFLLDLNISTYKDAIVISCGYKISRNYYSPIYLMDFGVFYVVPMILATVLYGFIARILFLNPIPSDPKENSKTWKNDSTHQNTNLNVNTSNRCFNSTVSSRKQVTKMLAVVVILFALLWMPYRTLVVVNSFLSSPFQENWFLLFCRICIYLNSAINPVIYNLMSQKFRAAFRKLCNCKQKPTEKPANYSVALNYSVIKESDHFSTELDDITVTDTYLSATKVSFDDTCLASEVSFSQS
# [1] = molecular target: T2, human TRH receptor protein (human); test: competition with 10 nM 3H-TRH, CHO cells expressing human TRH receptor; compound at 10^-4 M
# T2 chain: T1 sequence (P34981 1-398)
# [2] = molecular target: T2, human TRH receptor protein; test: competition with 10 nM 3H-TRH, CHO cells expressing human TRH receptor; compound at 10^-5 M
# [3] = molecular target: T2, human TRH receptor protein; test: competition with 10 nM 3H-TRH, CHO cells expressing human TRH receptor; compound at 10^-10 M
# Experimental: (§1) In Table 2, the degree of a reduction in the binding of [^3H] TRH in the case where the TRH analogous compound having respective concentrations was added to the total binding of [^3H] TRH in the case where no TRH analogous compound existed was indicated as percentage. The specific activity of [^3H] TRH used in the experiment was 83.04 Ci/mmol, and this was added to give a concentration of 10 nM in the reaction solution. For the compounds indicated by (*1) in the table, the specific activity of [^3H] TRH was 45 Ci/mmol, and this was added to give a concentration of 18.3 nM in the reaction solution.
# [4] = molecular target: T2, human TRH receptor protein; test: competition with 10 nM 3H-TRH, CHO cells expressing human TRH receptor; compound at 10^-11 M
# Experimental: as §1
# [5] = molecular target: T2, human TRH receptor protein; test: competition with 10 nM 3H-TRH, CHO cells expressing human TRH receptor; compound at 10^-9 M
# [6] = molecular target: T2, human TRH receptor protein; test: competition with 10 nM 3H-TRH, CHO cells expressing human TRH receptor; compound at 10^-12 M
# Experimental: as §1
# [7] = molecular target: T2, human TRH receptor protein; test: competition with 10 nM 3H-TRH, CHO cells expressing human TRH receptor; compound at 10^-8 M
# [8] = molecular target: T2, human TRH receptor protein; test: competition with 18.3 nM 3H-TRH, CHO cells expressing human TRH receptor; compound at 10^-10 M
# Experimental: as §1
# [9] = molecular target: T2, human TRH receptor protein; test: competition with 18.3 nM 3H-TRH, CHO cells expressing human TRH receptor; compound at 10^-9 M
# Experimental: as §1
# [10] = molecular target: T2, human TRH receptor protein; test: competition with 18.3 nM 3H-TRH, CHO cells expressing human TRH receptor; compound at 10^-8 M
# Experimental: as §1
# [11] = molecular target: T2, human TRH receptor protein; test: competition with 18.3 nM 3H-TRH, CHO cells expressing human TRH receptor; compound at 10^-5 M
# Experimental: as §1
# [12] = molecular target: T2, human TRH receptor protein; test: competition with 18.3 nM 3H-TRH, CHO cells expressing human TRH receptor; compound at 10^-6 M
# Experimental: as §1
# [13] = molecular target: T2, human TRH receptor protein; test: competition with 18.3 nM 3H-TRH, CHO cells expressing human TRH receptor; compound at 10^-7 M
# Experimental: as §1
# [14] = molecular target: T2, human TRH receptor protein; test: competition with 10 nM 3H-TRH, CHO cells expressing human TRH receptor; compound at 10^-7 M
# Experimental: as §1
# [15] = molecular target: T2, human TRH receptor protein; test: competition with 10 nM 3H-TRH, CHO cells expressing human TRH receptor; compound at 10^-6 M
# Experimental: as §1
# [16] = read-out: Antagonistic activity (TABLE 1; percentage to that of the control)
# [17] = -log M = 4, 10 nM [3H]TRH, read-out: Antagonistic Rate (%) at Each Concentration (-log M)
# [18] = -log M = 5, 10 nM [3H]TRH, read-out: Antagonistic Rate (%) at Each Concentration (-log M)
molecule,measurement,setting,value
"Cc1ncc2n1-c1ccc(Cl)cc1C(c1ccccc1F)=NC2 [Midazolam, midazolam]",inhibition at 10 µM,human TRH receptor; [16],2.6%
same,inhibition at 100 µM,human TRH receptor; [16],12%
same,inhibition at 1000 µM,human TRH receptor; [16],69.7%
same,"Antagonistic binding activity to the human TRH receptor, in words",human TRH receptor,"antagonistic activity increased in order of midazolam, chlordiazepoxide and oxazepam"
"NC(=O)[C@@H]1CCCN1C(=O)[C@H](Cc1ccccc1)NC(=O)[C@@H]1CCC(=O)N1 [Compound 14, pGlu Phe Pro NH2] ([pGlu]-Phe-Pro-NH2)",inhibition at 100 µM,human TRH receptor; [17],96.2%
same,inhibition at 10 µM,human TRH receptor; [18],74.2%
"CCC[C@H](NC(=O)[C@@H]1CCC(=O)N1)C(=O)N1CCC[C@H]1C(N)=O [Compound 15, pGlu NVal Pro NH2] ([pGlu]-[Nva]-Pro-NH2)",inhibition at 100 µM,human TRH receptor; [17],78.6%
same,inhibition at 10 µM,human TRH receptor; [18],33.4%
"CN1C(=O)CN=C(c2ccccc2F)c2cc([N+](=O)[O-])ccc21 [Flunitrazepam, flunitrazepam]",inhibition at 10 µM,human TRH receptor; [16],-0.5%
same,inhibition at 100 µM,human TRH receptor; [16],-4%
same,inhibition at 1000 µM,human TRH receptor; [16],-13.7%
same,"Antagonistic binding activity to the human TRH receptor, in words",human TRH receptor,no antagonistic binding was observed at all
"CNC1=Nc2ccc(Cl)cc2C(c2ccccc2)=[N+]([O-])C1 [Chlordiazepoxide, chlordiazepoxide]",inhibition at 10 µM,human TRH receptor; [16],-2.2%
same,inhibition at 100 µM,human TRH receptor; [16],7.1%
same,inhibition at 1000 µM,human TRH receptor; [16],46.8%
same,"Antagonistic binding activity to the human TRH receptor, in words",human TRH receptor,"antagonistic activity increased in order of midazolam, chlordiazepoxide and oxazepam"
"O=C1N[C@@H](Cc2c[nH]cn2)C(=O)N2CCC[C@@H]12 [Compound 2, Cyclo(His--Pro) His Pro-Diketopiperazine]",inhibition at 100 µM,human TRH receptor; [17],-1.1%
same,inhibition at 10 µM,human TRH receptor; [18],0.6%
pGlu His Pro Gly Lys ([pGlu]HPGK) [Compound 3],Antagonistic Rate (%) at Each Concentration (-log M),"human TRH receptor; -log M = 5, 10 nM [3H]TRH",31.9%
same,Antagonistic Rate (%) at Each Concentration (-log M),"human TRH receptor; -log M = 6, 10 nM [3H]TRH, 1 µM",-0.6%
[pGlu]-[Nva]-Pro-NH2 (SMILES CCC[C@H](NC(=O)[C@@H]1CCC(=O)N1)C(=O)N1CCC[C@H]1C(N)=O) [pGlu NVal Pro NH2],Antagonistic Rate (%),[1],78.6%
same,Antagonistic Rate (%),[2],33.4%
[pGlu]-Phe-Pro-NH2 [pGlu Phe Pro NH2],Antagonistic Rate (%),[1],96.2%
same,Antagonistic Rate (%),[2],74.2%
HP (cyclic dipeptide (diketopiperazine) of His and Pro) [Cyclo(His--Pro) His Pro-Diketopiperazine],Antagonistic Rate (%),[1],-1.1%
same,Antagonistic Rate (%),[2],0.6%
Blc-His-Pro [Blc His Pro],Antagonistic Rate (%),[1],0.7%
same,Antagonistic Rate (%),[2],-0.1%
[pGlu]-[His(3-Me)]-Pro-NH2 [pGlu 3-Me-His Pro NH2],Antagonistic Rate (%),[3],-4.4%
same,Antagonistic Rate (%),[4],-7.1%
same,Antagonistic Rate (%),[5],20%
same,Antagonistic Rate (%),[6],-6.5%
same,Antagonistic Rate (%),[2],97.9%
same,Antagonistic Rate (%),[7],85%
[pGlu]-Glu-Pro-NH2 (SMILES NC(=O)[C@@H]1CCCN1C(=O)[C@H](CCC(=O)O)NC(=O)[C@@H]1CCC(=O)N1) [pGlu Glu Pro NH2],Antagonistic Rate (%),[2],-2.9%
"[pGlu]-His-[ΔPro]-NH2 (SMILES NC(=O)[C@@H]1C=CCN1C(=O)[C@H](Cc1c[nH]cn1)NC(=O)[C@@H]1CCC(=O)N1) [pGlu His 3,4-dihydro-Pro NH2]",Antagonistic Rate (%),[8],2.2%
same,Antagonistic Rate (%),[9],7%
same,Antagonistic Rate (%),[10],39.1%
same,Antagonistic Rate (%),[11],99.7%
same,Antagonistic Rate (%),[12],98.3%
same,Antagonistic Rate (%),[13],84.6%
[pGlu]-His-Pro-NH2 [TRH (pGlu His Pro NH2)],Antagonistic Rate (%),[8],-0.7%
same,Antagonistic Rate (%),[9],4.2%
same,Antagonistic Rate (%),[3],0.3%
same,Antagonistic Rate (%),[4],0.7%
same,Antagonistic Rate (%),[10],39.8%
same,Antagonistic Rate (%),[11],99.7%
same,Antagonistic Rate (%),[12],97.8%
same,Antagonistic Rate (%),[13],83.9%
same,Antagonistic Rate (%),[5],7.2%
same,Antagonistic Rate (%),[14],90.7%
same,Antagonistic Rate (%),[6],0%
same,Antagonistic Rate (%),[2],99.7%
same,Antagonistic Rate (%),[7],52%
same,Antagonistic Rate (%),[15],98.7%
Glu-His-Pro-NH2 [Glu His Pro NH2],Antagonistic Rate (%),[8],2%
same,Antagonistic Rate (%),[9],1%
same,Antagonistic Rate (%),[10],1.8%
same,Antagonistic Rate (%),[11],95.3%
same,Antagonistic Rate (%),[12],70.7%
same,Antagonistic Rate (%),[13],19.7%
[pGlu]-His-Pro [pGLU His Pro],Antagonistic Rate (%),[1],40.8%
same,Antagonistic Rate (%),[2],11.8%
